Data from PMC6484772, “S100A3 a partner protein regulating the stability/activity of RARα and PML-RARα in cellular models of breast/lung cancer and acute myeloid leukemia” (Oncogene, 2018).

Target: T1, GST-RARα (UniProt P10276 1-462)
T1 construct: full-length RARα; also called GST-tagged full-length RARα; source: GST-tagged recombinant protein
T1 sequence (looked up): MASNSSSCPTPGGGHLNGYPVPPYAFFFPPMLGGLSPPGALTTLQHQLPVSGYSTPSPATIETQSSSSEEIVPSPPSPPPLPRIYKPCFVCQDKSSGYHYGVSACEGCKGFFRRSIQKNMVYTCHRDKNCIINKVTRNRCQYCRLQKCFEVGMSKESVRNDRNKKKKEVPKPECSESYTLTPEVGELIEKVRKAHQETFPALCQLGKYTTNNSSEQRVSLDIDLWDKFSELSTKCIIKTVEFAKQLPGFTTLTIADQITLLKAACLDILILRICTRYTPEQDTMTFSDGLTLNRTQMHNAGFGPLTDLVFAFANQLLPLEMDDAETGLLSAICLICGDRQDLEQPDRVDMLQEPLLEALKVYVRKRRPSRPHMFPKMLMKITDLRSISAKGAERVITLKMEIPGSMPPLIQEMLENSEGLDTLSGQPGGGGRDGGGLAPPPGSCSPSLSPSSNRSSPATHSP
Experiment: far-Western, overlay or dot blot; S100A3 immunoprecipitated from extracts of transfected COS-7 cells with anti-S100A3 beads, resolved and blotted; probed with GST-tagged RARα recombinant proteins; developed with an anti-GST antibody
Conditions: both partners purified

B1: S100A3 (over-expressed in COS-7) (natural protein, human, UniProt P33764 1-101, looked up)
chain: MARPLEQAVAAIVCTFQEYAGRCGDKYKLCQAELKELLQKELATWTPTEFRECDYNKFMSVLDTNKDCEVDFVEYVRSLACLCLYCHEYFKDCPSEPPCSQ
notes: protein S100-A3; source: COS-7, transiently transfected (pcDNA3 expression plasmid for the S100A3 cDNA), in cell extract; immunoprecipitated with anti-S100A3 for the far-western
binding result: binds
